Results taken from the supplement of paper PMC7877785.
± gives the uncertainty stated by the source.

Assay: self-splicing fitness, log relative to wild type (ln ratio); higher = more splicing; Tetrahymena group I intron in knt gene, E. coli kanamycin selection, DiMSum; sequences stand for … in CUCUCU…GGAGGGAAAAGUUAUCAGGCAUGCACCUGGUAGCUAGUCUUUAAACCAAUAGAUUGCAUCGGUUUAAAAGGCAAGACCGUCAAAUUGCGGGAAAGGGGUCAACAGCCGUUCAGUACCAAGUCUCAGGGGAAACUUUGAGAUGGCCUUGCAAAGGGUAUGGUAAUAAGCUGACGGACAUGGUCCUAACCACGCAGCCAAGUCCUAAGUCAACAGAUCUUCUGUUGAUAUGGAUGCAGUUCACAGACUAAAUGUCGGUCGGGGAAGAUGUAUUCUUCUCAUAAGAUAUAGUCGGACCUCUCCUUAAUGGGAGCUAGCGGAUGAAGUGAUGCAACACUGGAGCCGCUGGGAACUAAUUUGUAUGCGAAAGUAUAUUGAUUAGUUUUGGAGUACUCGUGGUCG
How it was run: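 DiMSum derived fitness as the error-weighted combination of fold changes across replicates, kanamycin versus no kanamycin, normalised to wild type. E. coli BL21(DE3) held the library, which randomised all eight P1ex-region intron nucleotides within the knt kanamycin-resistance gene on pET-22b(+). Six replicate transformations grew overnight at 37°C or 30°C on LB agar with or without 25 μg/mL kanamycin, also containing 100 μg/mL carbenicillin, 50 μM IPTG and 0.2% rhamnose, and pooled colonies were amplicon-sequenced on an Illumina HiSeq 2500.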

Row | Sequence | self-splicing fitness (ln) (30 °C) | self-splicing fitness (ln) (37 °C)
1 | AGUAAGCAAUAUUACGCGUU | -3.44 ± 0.17 | -2.8 ± 0.19
2 | CUGGAGCAAUAUUACGGUGC | -3.49 ± 0.48 | –
3 | UUGCAGCAAUAUUACGGACC | -2.34 ± 0.27 | -2 ± 0.26
4 | UACCAGCAAUAUUACGCCUG | -1.3 ± 0.14 | -1.21 ± 0.19
5 | GUUCAGCAAUAUUACGGACG | -2.15 ± 0.11 | -0.428 ± 0.11
6 | ACAUAGCAAUAUUACGGAAG | -3.57 ± 0.15 | -3.04 ± 0.22
7 | GUCAAGCAAUAUUACGAGCA | -1 ± 0.35 | -2.29 ± 0.28
8 | ACGCAGCAAUAUUACGCAGC | -3.49 ± 0.18 | -2.16 ± 0.25
9 | CAAUAGCAAUAUUACGGGAU | -3.36 ± 0.31 | -2.57 ± 0.35
10 | GGUCAGCAAUAUUACGCUUC | -1.12 ± 0.14 | -0.693 ± 0.24
11 | GCGGAGCAAUAUUACGGUCC | -2.54 ± 0.39 | –
12 | GCGUAGCAAUAUUACGUUAU | -3.72 ± 0.35 | -1.89 ± 0.18
13 | CAUCAGCAAUAUUACGAUUU | -0.551 ± 0.071 | 0.205 ± 0.1
14 | AGGAAGCAAUAUUACGUGCA | -1.12 ± 0.11 | -1.32 ± 0.13
15 | GCGAAGCAAUAUUACGAAGG | -0.597 ± 0.23 | -0.295 ± 0.3
16 | UCCUAGCAAUAUUACGAGGU | -3.53 ± 0.19 | -1.45 ± 0.13
17 | CAGUAGCAAUAUUACGUACG | 0.212 ± 0.13 | 0.0818 ± 0.15
18 | UAUGAGCAAUAUUACGUCGC | -4.2 ± 0.39 | -2.45 ± 0.39
19 | CGAUAGCAAUAUUACGGUAU | -2.78 ± 0.14 | -1.79 ± 0.17
20 | CCGGAGCAAUAUUACGACGC | -3.23 ± 0.22 | -2.22 ± 0.32
21 | ACCUAGCAAUAUUACGAGAC | -3.14 ± 0.4 | -1.89 ± 0.24
22 | AUUGAGCAAUAUUACGAAUU | -2.85 ± 0.23 | -1.71 ± 0.24
23 | UCAGAGCAAUAUUACGAACC | – | -1.15 ± 0.42
24 | GAUUAGCAAUAUUACGAGCA | -1.27 ± 0.17 | 0.106 ± 0.14
25 | GAUCAGCAAUAUUACGGUGG | -1.36 ± 0.057 | -0.762 ± 0.073

Row | Sequence | self-splicing fitness (ln) (30 °C) | self-splicing fitness (ln) (37 °C)
26 | GCCGAGCAAUAUUACGCCAC | -2.11 ± 0.34 | –
27 | GCUCAGCAAUAUUACGCCGG | -2.03 ± 0.15 | -0.855 ± 0.17
28 | ACAGAGCAAUAUUACGGCCA | -3.47 ± 0.19 | -2.29 ± 0.17
29 | UCGCAGCAAUAUUACGCGUG | -3.34 ± 0.15 | -1.44 ± 0.14
30 | GUGUAGCAAUAUUACGACAU | -2.608 ± 0.022 | -1.52 ± 0.037
31 | GAAGAGCAAUAUUACGGCGG | -3.45 ± 0.2 | -2.19 ± 0.27
32 | GCUGAGCAAUAUUACGAGAU | -3.06 ± 0.34 | -2.09 ± 0.31
33 | UUUGAGCAAUAUUACGGUAU | -4.23 ± 0.36 | -2.73 ± 0.38
34 | CAUGAGCAAUAUUACGCAUA | -2.29 ± 0.26 | -1.78 ± 0.23
35 | AUGAAGCAAUAUUACGGCUA | 0.423 ± 0.092 | 0.486 ± 0.11
36 | CAAUAGCAAUAUUACGCUGG | -1.32 ± 0.13 | -0.734 ± 0.14
37 | CCAGAGCAAUAUUACGUAAG | -1.59 ± 0.097 | -0.37 ± 0.12
38 | UGAAAGCAAUAUUACGUUUC | -3.14 ± 0.34 | -2.03 ± 0.28
39 | CACAAGCAAUAUUACGUCGA | -2.62 ± 0.078 | -0.984 ± 0.073
40 | GCUUAGCAAUAUUACGGAUU | -1.15 ± 0.1 | -0.911 ± 0.11
41 | GCAUAGCAAUAUUACGUGCG | -2.26 ± 0.1 | -1.91 ± 0.14
42 | ACUUAGCAAUAUUACGCCUA | -0.829 ± 0.29 | 0.394 ± 0.2
43 | ACCCAGCAAUAUUACGGAGG | -2.1 ± 0.098 | -1.35 ± 0.12
44 | UAUCAGCAAUAUUACGAACA | -0.0668 ± 0.089 | -0.206 ± 0.096
45 | CUUAAGCAAUAUUACGGGUU | -2.65 ± 0.19 | -3.2 ± 0.27
46 | GCUGAGCAAUAUUACGCAUU | -2.67 ± 0.13 | -1.63 ± 0.2
47 | CAUUAGCAAUAUUACGGAGA | -3.12 ± 0.41 | -2.39 ± 0.3
48 | GUCAAGCAAUAUUACGUCAG | -3.55 ± 0.23 | -3.26 ± 0.37
49 | AGUCAGCAAUAUUACGAAGG | -1.27 ± 0.08 | -1.46 ± 0.12
50 | GUAGAGCAAUAUUACGGUAU | -1.38 ± 0.083 | -0.286 ± 0.1

Row | Sequence | self-splicing fitness (ln) (30 °C) | self-splicing fitness (ln) (37 °C)
51 | ACAAAGCAAUAUUACGAGGU | -4.39 ± 0.2 | -2.78 ± 0.18
52 | UCGAAGCAAUAUUACGUGAG | -0.469 ± 0.053 | -0.72 ± 0.088
53 | UGCAAGCAAUAUUACGCCUU | -1 ± 0.16 | -0.449 ± 0.15
54 | CCACAGCAAUAUUACGGUCG | -0.147 ± 0.066 | 0.437 ± 0.086
55 | CCCAAGCAAUAUUACGAUCC | – | -2.85 ± 0.35
56 | GCGAAGCAAUAUUACGCGCG | -2.34 ± 0.17 | -1.28 ± 0.22
57 | AAGCAGCAAUAUUACGCGGU | -3.08 ± 0.17 | -2.55 ± 0.23
58 | UCCGAGCAAUAUUACGUAAG | -4.92 ± 0.38 | -2.13 ± 0.25
59 | CUGAAGCAAUAUUACGUAGC | -4.07 ± 0.28 | -3.43 ± 0.24
60 | GUCGAGCAAUAUUACGGAUC | -1.36 ± 0.087 | -0.586 ± 0.097
61 | GCACAGCAAUAUUACGGAAU | -1.08 ± 0.076 | -0.95 ± 0.095
62 | CUGAAGCAAUAUUACGAGUA | -3.67 ± 0.28 | -2.63 ± 0.3
63 | UGGAAGCAAUAUUACGCUGG | -1.74 ± 0.12 | -1.26 ± 0.14
64 | AAGUAGCAAUAUUACGAAAC | -3.53 ± 0.27 | -1.45 ± 0.29
65 | GUAGAGCAAUAUUACGCGUA | -1.64 ± 0.2 | -0.093 ± 0.25
66 | CUUAAGCAAUAUUACGAAGG | -2.89 ± 0.17 | -1.54 ± 0.24
67 | GGCGAGCAAUAUUACGUAUG | -1.78 ± 0.14 | -1.01 ± 0.14
68 | GCAAAGCAAUAUUACGAGGU | -3.56 ± 0.25 | -3.24 ± 0.33
69 | CAGGAGCAAUAUUACGUUGC | – | -2.26 ± 0.28
70 | UAAAAGCAAUAUUACGCAUC | -2.95 ± 0.15 | -2.36 ± 0.21
71 | GCUCAGCAAUAUUACGGCUU | -0.675 ± 0.066 | -0.385 ± 0.071
72 | CAGAAGCAAUAUUACGUUGU | -3.38 ± 0.13 | -2.81 ± 0.15
73 | UUUGAGCAAUAUUACGCUAC | – | -1.45 ± 0.3
74 | CGAAAGCAAUAUUACGGCUC | -2.88 ± 0.18 | -1.73 ± 0.21
75 | CGUGAGCAAUAUUACGUUGC | -2.69 ± 0.21 | -2.51 ± 0.32

Row | Sequence | self-splicing fitness (ln) (30 °C) | self-splicing fitness (ln) (37 °C)
76 | UCAGAGCAAUAUUACGAUCG | – | -2.39 ± 0.33
77 | ACAGAGCAAUAUUACGACCA | -0.827 ± 0.21 | –
78 | GUUAAGCAAUAUUACGUAGG | -1.73 ± 0.1 | -1.16 ± 0.17
79 | ACUAAGCAAUAUUACGUGGU | -3.41 ± 0.15 | -2.73 ± 0.21
80 | CUAUAGCAAUAUUACGCGCC | -1.01 ± 0.43 | –
81 | AACUAGCAAUAUUACGGAAG | -2.57 ± 0.13 | -1.49 ± 0.12
82 | GGGGAGCAAUAUUACGGACA | – | -1.12 ± 0.2
83 | ACGGAGCAAUAUUACGUCGC | -2.93 ± 0.24 | -1.42 ± 0.18
84 | GGCAAGCAAUAUUACGUACA | -0.414 ± 0.071 | 0.296 ± 0.094
85 | GACAAGCAAUAUUACGCAUG | -2.33 ± 0.13 | -0.814 ± 0.14
86 | GUGUAGCAAUAUUACGUACA | -1.49 ± 0.2 | -1.87 ± 0.28
87 | CUCCAGCAAUAUUACGCCAG | -3.19 ± 0.37 | -2.08 ± 0.46
88 | ACAGAGCAAUAUUACGACAU | -3.246 ± 0.021 | -2.17 ± 0.036
89 | CAUCAGCAAUAUUACGAUCG | -0.307 ± 0.12 | -0.125 ± 0.15
90 | UAGCAGCAAUAUUACGCACU | -0.419 ± 0.086 | 0.238 ± 0.1
91 | GGAUAGCAAUAUUACGUUAC | -1.87 ± 0.12 | -1.26 ± 0.15
92 | UAAUAGCAAUAUUACGUGAC | -3.71 ± 0.22 | -2.78 ± 0.22
93 | UUAUAGCAAUAUUACGAGUA | -1.68 ± 0.38 | -1.09 ± 0.33
94 | CGCCAGCAAUAUUACGGCGA | -3.29 ± 0.23 | -1.84 ± 0.18
95 | GAGGAGCAAUAUUACGGGAU | -2.69 ± 0.28 | –
96 | AUGGAGCAAUAUUACGUCCG | -1.29 ± 0.12 | -1.06 ± 0.13
97 | ACGCAGCAAUAUUACGAUCU | -0.427 ± 0.063 | 0.356 ± 0.091
98 | GGAUAGCAAUAUUACGGGGU | – | -3.01 ± 0.35
99 | AGGUAGCAAUAUUACGGGUU | -2.347 ± 0.017 | -1.72 ± 0.035
